# B1: Fibroblast growth factor receptor 3 (Homo sapiens), P22607-1 (parent)
# chain: MGAPACALALCVAVAIVAGASSESLGTEQRVVGRAAEVPGPEPGQQEQLVFGSGDAVELSCPPPGGGPMGPTVWVKDGTGLVPSERVLVGPQRLQVLNASHEDSGAYSCRQRLTQRVLCHFSVRVTDAPSSGDDEDGEDEAEDTGVDTGAPYWTRPERMDKKLLAVPAANTVRFRCPAAGNPTPSISWLKNGREFRGEHRIGGIKLRHQQWSLVMESVVPSDRGNYTCVVENKFGSIRQTYTLDVLERSPHRPILQAGLPANQTAVLGSDVEFHCKVYSDAQPHIQWLKHVEVNGSKVGPDGTPYVTVLKTAGANTTDKELEVLSLHNVTFEDAGEYTCLAGNSIGFSHHSAWLVVLPAEEELVEADEAGSVYAGILSYGVGFFLFILVVAAVTLCRLRSPPKKGLGSPTVHKISRFPLKRQVSLESNASMSSNTPLVRIARLSSGEGPTLANVSELELPADPKWELSRARLTLGKPLGEGCFGQVVMAEAIGIDKDRAAKPVTVAVKMLKDDATDKDLSDLVSEMEMMKMIGKHKNIINLLGACTQGGPLYVLVEYAAKGNLREFLRARRPPGLDYSFDTCKPPEEQLTFKDLVSCAYQVARGMEYLASQKCIHRDLAARNVLVTEDNVMKIADFGLARDVHNLDYYKKTTNGRLPVKWMAPEALFDRVYTHQSDVWSFGVLLWEIFTLGGSPYPGIPVEELFKLLKEGHRMDKPANCTHDLYMIMRECWHAAPSQRPTFKQLVEDLDRVLTVTSTDEYLDLSAPFEQYSPGGQDTPSSSSSGDDSVFAHDLLPPAPPSSGGSRT
# Variants of: B1
# Settings: with fgf1_human FGF1, P05230
# Sequence of fgf1_human FGF1, P05230 (P05230 whole entry): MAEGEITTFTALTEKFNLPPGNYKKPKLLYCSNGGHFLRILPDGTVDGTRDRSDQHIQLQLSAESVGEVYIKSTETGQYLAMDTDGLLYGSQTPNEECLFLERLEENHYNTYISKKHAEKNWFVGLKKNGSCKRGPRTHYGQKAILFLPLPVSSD
row,Variant,effect of a mutation on the interaction
1,P250R,increasing interaction strength

# Variants of: B1
# Settings: with fgf2_human FGF2, P09038
# Sequence of fgf2_human FGF2, P09038 (P09038 whole entry): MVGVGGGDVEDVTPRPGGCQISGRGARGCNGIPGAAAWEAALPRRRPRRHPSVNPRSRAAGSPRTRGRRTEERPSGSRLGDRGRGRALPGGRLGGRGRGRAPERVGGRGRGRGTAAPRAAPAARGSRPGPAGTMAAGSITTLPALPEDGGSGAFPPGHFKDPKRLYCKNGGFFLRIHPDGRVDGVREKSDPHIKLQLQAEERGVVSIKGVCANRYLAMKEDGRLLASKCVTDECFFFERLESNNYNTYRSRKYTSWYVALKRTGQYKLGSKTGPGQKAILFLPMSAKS
row,Variant,effect of a mutation on the interaction
1,P250R,causing an interaction

# Variants of: B1
# Settings: with fgf9_human FGF9, P31371
row,Variant,effect of a mutation on the interaction
1,P250R,causing an interaction

# From IntAct's records for PubMed 14613973
